According to article PMC8848936 (RNA, 2022):

Molecular target: T1, Tsr1–TAP (S. cerevisiae, UniProt Q07381 1-788)
T1 sequence (looked up): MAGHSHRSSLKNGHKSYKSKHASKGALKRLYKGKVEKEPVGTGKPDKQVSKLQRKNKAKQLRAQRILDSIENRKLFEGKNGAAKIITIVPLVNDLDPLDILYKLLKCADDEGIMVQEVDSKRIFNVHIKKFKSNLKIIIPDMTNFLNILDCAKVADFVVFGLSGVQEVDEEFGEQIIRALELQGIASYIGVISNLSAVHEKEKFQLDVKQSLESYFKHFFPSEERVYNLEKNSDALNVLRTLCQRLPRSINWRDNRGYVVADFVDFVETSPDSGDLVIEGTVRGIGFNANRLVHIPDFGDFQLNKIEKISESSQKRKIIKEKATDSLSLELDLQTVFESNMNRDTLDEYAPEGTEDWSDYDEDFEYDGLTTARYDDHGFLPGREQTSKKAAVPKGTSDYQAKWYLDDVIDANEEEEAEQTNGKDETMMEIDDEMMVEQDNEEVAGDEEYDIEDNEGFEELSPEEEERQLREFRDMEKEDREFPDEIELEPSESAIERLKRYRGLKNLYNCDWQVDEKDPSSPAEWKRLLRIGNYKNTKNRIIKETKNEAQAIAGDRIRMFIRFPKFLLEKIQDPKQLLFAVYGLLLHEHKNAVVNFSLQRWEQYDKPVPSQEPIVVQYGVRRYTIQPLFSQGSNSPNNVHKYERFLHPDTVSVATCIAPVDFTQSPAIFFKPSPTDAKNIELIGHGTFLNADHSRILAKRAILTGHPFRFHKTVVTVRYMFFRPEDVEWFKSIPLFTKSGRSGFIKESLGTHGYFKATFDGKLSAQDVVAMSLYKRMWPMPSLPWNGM
Assay: co-sedimentation

B1: recombinant Rio2 (Rio2-HA) (natural protein, yeast, UniProt P40160 1-425, looked up)
chain: MKLDTSHMRYLTTDDFRVLQAVEQGSRSHEVVPTPLIHQISGMRSQSGTNRAISDLAKLSLISKMRNVKYDGYRLTYNGIDYLALKTMLNRDTVYSVGNTIGVGKESDIYKVSDKNGNPRVMKIHRLGRTSFHSVRNNRDYLKKSNQGANWMHLSRLAANKEYQFMSMLYSKGFKVPEPFDNSRHIVVMELIEGYPMRRLRKHKNIPKLYSDLMCFIVDLANSGLIHCDFNEFNIMIKDKLEDENDCGFVVIDFPQCISIQHQDADYYFQRDVDCIRRFFKKKLKYEPKPDSSMLDTEGFGDGYKYAYPDFKRDVKRTDNLDELVQASGFSKKHPGDRGLETAVESMRNAVYNSDDDMSNDEAEEENGEGDYSEEDEYYDSELDNESSEDDSEDAQEEENERIIEALSSGVENLKMDKLGNYILE
B1: binds.
